Test results: the nanobody polyreactivity screen of Harvey et al. (2022)

Test: yeast display, Sf9 membrane polyspecificity reagent, FACS + sequencing; frameworks hold sequencing errors
Outline: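 Sorting gates, low and high (top ~1%), were placed on anti-HA fluorescence to track expression and on streptavidin fluorescence to track reagent binding. A clone's polyreactivity label is taken from the gate it came out of. The reagent was 10% biotinylated, detergent-solubilized Sf9 membrane, applied for 1 hour at 4 °C to galactose-induced yeast display cells.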

Row | Sequence | polyreactivity (PSR sort gate)
1 | QVQLVESGGGLVQAGGSLRLSCAASGSIFDRNAMGRYRQAPGKERELVAAITSGGSTYYADSVKGRFTISRDNAKNTVYFQMNSLKPEDTAVYYCNADTDPPVPLYYWGQGTQVNVSS | low polyreactivity
2 | QVQLVESGGGLVQAGGSLRLSCAASGSIFDRNAMGWYRQAPGKERELVAAISFSGGSTYYADSVKGRFTISRDNAKNTVYLQMNSLKPEDTAVYYCAKAGRYANLPYVYWGQGTQVTVSS | high polyreactivity
3 | QVQLVESGGGLVQAGGSLRLSCAASGSIFDRNAMGWYRQAPGKERELVSAISRGGRTYYADSVKGRFTISRDNAKNTVYLQMNSLKPEDTAVYDCAAGYPSAWAYTTDDYWGQGTQVTVSS | low polyreactivity
4 | QVQLVESGGGLVQAGGSLRLSCAASGSIFDRYAMGWYRQAPGKESELVAAITCGTSTYYADSVKGRFTISRDNAKNTVYLKMNSLKPEDTAVYYCNKGYSSSMDYWGQGTQVTVSS | low polyreactivity
5 | QVQLVESGGGLVQAGGSLRLSCAASGSIFDSKAMGWFRQGPGKERELVAAINRSDASTYYADSVKGRFTISRDNAKNTVYLQMNSLKPEDTAVYYCAVEVYVYNVDIYDYWGQGTQVTVSS | low polyreactivity
6 | QVQLVESGGGLVQAGGSLRLSCAASGSIFDSNTMGWYRQAPGKERELVAAITGTGTSTYYADSVKGRFTISRDNAKNTVYLQMNSLKPEDTAVYYCAADLEYKTWWYDYWGQGTQVTVSS | low polyreactivity
7 | QVQLVESGGGLVQAGGSLRLSCAASGSIFDSYAMGWYRQAPGKERELVAGIDSTGDTSYADSVKGRFTISRDNAKNTVYLQMNSLKPEDTAVYYCAKEYPGDSVQASDEPWGMGYWGQGTQVTVSS | low polyreactivity
8 | QVQLVESGGGLVQAGGSLRLSCAASGSIFDSYAMGWYRQAPGKERELVATINTSGGSTYYADSVKGRFTIHDNAKNTVYLQKNSLKPEDTAVYYCNAGRWVYWQNNFGDYGYWGQGTQVTVSS | low polyreactivity
9 | QVQLVESGGGLVQAGGSLRLSCAASGSIFDSYAMGWYRQAPGKERELVATINTSGGSTYYADSVKGRFTIHDNAKNTVYLQMNSLKPEDTAVYYCAVVVHYSTIGGGYRPRMYYWGQGTQVTVSS | low polyreactivity
10 | QVQLVESGGGLVQAGGSLRLSCAASGSIFDSYAMGWYRQAPGKERELVAVISESGGTTYYADSVKGRFTISRDNAKNTVYLQMNSLKPEDTAVYYCAAVWYYQFGVWGYYWGQGTQVTVSS | low polyreactivity
11 | QVQLVESGGGLVQAGGSLRLSCAASGSIFDSYVMGWYRQAPGKERELVAAITYSGGSTYADSVKGRFTISRDNAKNTVYLQMNSLKPEDTAVYYCAADLSGGSRYDYWGQGTQVTVSS | low polyreactivity
12 | QVQLVESGGGLVQAGGSLRLSCAASGSIFDTNAMGWYRQAPGKERELVAAIRWSGGRTYYADSVKGRFTISRDNAKITVYLQMNSLKPEDTAVYYCNKVPRTPIPYKYGYWGQGTQVTVSS | high polyreactivity
13 | QVQLVESGGGLVQAGGSLRLSCAASGSIFDTYAMGWYRQAPGKERELVAAITWGGGRTYYADSVKGRFTISRDNAKNTVYLQMNSLKPEDTAVYYCAARWRLRGGNQRYGYWGQGTQVTVSS | high polyreactivity
14 | QVQLVESGGGLVQAGGSLRLSCAASGSIFDTYAMGWYRQAPGQERELVAAITSGGSTNYADSVKGRFTISRDNAKNTVYLQMNSLKPEETAVYYCAADAEDRPSWPGNSEYEYWGQGTQVTVSS | low polyreactivity
15 | QVQLVESGGGLVQAGGSLRLSCAASGSIFDTYSMGWYIQAPGKERELVAAISSGGRTYYADSVKGRFTISRDNAKNTVYLQMNSLKPEDTAVYYCNARYHARYGGDYWGQGTQVTVSS | high polyreactivity
16 | QVQLVESGGGLVQAGGSLRLSCAASGSIFDVNAMGWYRQAPGIERDLVAAISQRGTRTYYADSVKGRFTISRDNAKNTVYLQMNSLKPEDTAVYYCAARVPSVGNQSGYDYWGQGTQVTVSS | high polyreactivity
17 | QVQLVESGGGLVQAGGSLRLSCAASGSIFDVNAMGWYRQAPGKERELVAAITSSGGSTYYADSVKGRFTISRDNAKNTVYLQMNSLKPVDTAVYYCAAYSLYTMYWGQGTQVTVSS | low polyreactivity
18 | QVQLVESGGGLVQAGGSLRLSCAASGSIFDVNAMGWYRQAPGKESELVAAISDSGGSTYYADSVKGRFTISRDNAKTTVYLQMTSLKQEDTAVYYCNADWSWYNYYDFDYWGQGTQVTVSS | low polyreactivity
19 | QVQLVESGGGLVQAGGSLRLSCAASGSIFDVNAMGWYRQAPWKERELVAAISDSGGSTYYADSVKGRFTISRDNANNTVYLQMNSLKPEDTAVYYCNADWSWYNYYDFDYWGQGTQVTVSS | low polyreactivity
20 | QVQLVESGGGLVQAGGSLRLSCAASGSIFDVYAMGWYRQAPGKERELVATISNSAGSTYYADSVKGRFTISRDNAKNTVYLQMNSLKPEDTAVYYCAAVVVYFDEYDYWGQGTQVTVSS | low polyreactivity
21 | QVQLVESGGGLVQAGGSLRLSCAASGSIFDVYGMGWYRQAPGKEREFVADITSRGTRTYYADSVKGRFTISRDNAKNTVYLQMNSLKPEDTAVYYCNTLVGVDFWLVDYWGQGTQVTLSS | low polyreactivity
22 | QVQLVESGGGLVQAGGSLRLSCAASGSIFDVYGMGWYRQAPGKERELVARITSAGNTDYADSVKGRFTISRDNAKNTVYLQRNSLKPEDTAVYYCARDYVWFYGDTDFYYYLFDYWGQGTQVTVSS | low polyreactivity

Row | Sequence | polyreactivity (PSR sort gate)
23 | QVQLVESGGGLVQAGGSLRLSCAASGSIFDVYTMGWYRQAPGKERELVAAINTGGGSTYYADSVKGRFTISRDNAKNTVYLQMNSLKPEDTAVYFCAASVYHYGPLYYWGQGTQVTVSS | low polyreactivity
24 | QVQLVESGGGLVQAGGSLRLSCAASGSIFDWYAMGWYRQAPGKERELGAAITNSGGRTYYADSVKGRFTISRDTAKNTVYLQMNSLKPEDTAVYYCNASVFRLRKMYYWGQGTPVTVSS | high polyreactivity
25 | QVQLVESGGGLVQAGGSLRLSCAASGSIFDYKAMGWYRQAPGKERELVAAIDSSDTGTYYADSVKGRFTISRDNAKNTVYLQMNSLKPEDTAVYYCAAEYGWWEGSTTYLRYDYWGQGTQVTVSS | low polyreactivity
26 | QVQLVESGGGLVQAGGSLRLSCAASGSIFDYNAMGWYRQAPGKVRELVAAITGSGGSTYYADSVKGRFTISRDNAKNTVYLQMNSLTAEDTAVYYCAAPVDYRRYEYEYWGQGTQVTVSS | low polyreactivity
27 | QVQLVESGGGLVQAGGSLRLSCAASGSIFDYNGMGWYRQAPGKERELVATITLSTARTYYADSVKGRFTISRDNAKNTVYLQMNSLKPEDTAVYYCAATRLTPYIYGGKYNYWGQGTQVTVSS | high polyreactivity
28 | QVQLVESGGGLVQAGGSLRLSCAASGSIFDYNTMGWYRQAPGKEREFVAAISSSGGGTSYADSVKGRFTISRDNAKNTVYLQMNSLKPEDTAVYYCAALIKLTPYQRQYWKYRAYYYWGQGSQVTVSS | high polyreactivity
29 | QVQLVESGGGLVQAGGSLRLSCAASGSIFDYYAMGWDRQAPGKERELVAAISWSGGSTYYADSVKGRFTISRDNAKNTVYLHMNSLNPEDTAVYYCAADEYDYYHSRWYEYWGQGTQVTVSS | high polyreactivity
30 | QVQLVESGGGLVQAGGSLRLSCAASGSIFDYYAMGWYRQAPGKERELVAAIDNPDSTNYADSVKGRFTISRDNAKNTVYFQMNSLKPEDTAVYYCNADYWRYISSYDYWGQGTQVTVSS | low polyreactivity
31 | QVQLVESGGGLVQAGGSLRLSCAASGSIFDYYAMGWYRQAPGKERELVATITSGVSTYYADSVKGRFTISRDNAKNTVYLQMNSLKPEDTAVYYCARDYAKSQDLYKYDYWGQGTQVTVSS | low polyreactivity
32 | QVQLVESGGGLVQAGGSLRLSCAASGSIFDYYTMGWYRQAPGKERELVASITQSGGSTYYADSVKGRFTISRDNAKNTVYLQMNSLKPEDTAVYYCAADFSIVKMDYWGQGTQVTVSS | low polyreactivity
33 | QVQLVESGGGLVQAGGSLRLSCAASGSIFEANVMGWYRQAPGKERELVASISSDGTSTYYADSVKGRFTISRDNAKNTVYLQMNSLKPEDTAVYYCNADAGAGWYPDSKYDYDYWGQGTQVTVSS | low polyreactivity
34 | QVQLVESGGGLVQAGGSLRLSCAASGSIFEFNTMGWYRQAPGKERELVAAISSSGGRTYYADSVKGRFTISRDNAKNTVYLQMNSLKPEDTAVYYCNAVSYYGARYDYWGQGTQVTVSS | high polyreactivity
35 | QVQLVESGGGLVQAGGSLRLSCAASGSIFEGNGMGWYRQAPGKERELVAAITFRSGSTYYADSVKGRFTISRDNAKNTVYLLMNSLKPADTAVYYCAAHESYQVSAYDYWGQGSQVTVSS | low polyreactivity
36 | QVQLVESGGGLVQAGGSLRLSCAASGSIFEGNGMGWYRQAPGKERELVAAITFRSGSTYYADSVKGRFTISRDNAKNTVYLQMNSLKPEDTAVYYCAADEYYEVSAYDYWGQGTQVTVSS | low polyreactivity
37 | QVQLVESGGGLVQAGGSLRLSCAASGSIFEGYAMGWYRQAPGKERELVAAISRSGGSTYYADSVKGRFPISRDNAKNTVYLQMNSLKPEDTAVYYCAARKAIDYQGRHDHWGQGTQVTVSS | low polyreactivity
38 | QVQLVESGGGLVQAGGSLRLSCAASGSIFEGYAMGWYRQAPGKERELVARITSDDDSTYYADSVKGRFTISRDNAKNTVYLQMNSLKPEDTAVYYCNADYYCTSLAMDSWGQGTQVTVSS | low polyreactivity
39 | QVQLVESGGGLVQAGGSLRLSCAASGSIFEGYVMGWYRPAPGKVRELVAAISWSGGSTYYADSVKGRFTISRDNAKNTVYLQMNSLKPEDTAVYYCAAYGYDRYGRTRYNSWGQGTQVTVSS | high polyreactivity
40 | QVQLVESGGGLVQAGGSLRLSCAASGSIFEIYDMGWYRQAPGKERELVASIRTSGGSTYYAESVKGRFTISRDNAKNTVYLLMNSLKPEDTAVYYCATGWSWYHPDYDYWGQGTQVTVSS | low polyreactivity
41 | QVQLVESGGGLVQAGGSLRLSCAASGSIFELYAMGWYRQAPGKDRELVASITWSSSNTHYADSVKGRFTISRDNAKNTVYLQMNSMKPEDTAVYYCAKDVLYGQFDGDSWGQGNQVTVSS | low polyreactivity
42 | QVQLVESGGGLVQAGGSLRLSCAASGSIFELYAMGWYRQAPGKERELVAAISSTGGRTYYADSVKGRFTISRDNAKNTVYLQMNSLKPEDTAVYYCNKVWPRVHPWNYDYWGQGTQVTVSS | high polyreactivity
43 | QVQLVESGGGLVQAGGSLRLSCAASGSIFENYAMGCYRQAPGKERELVAAISSSGDSTYYADSVKGRFTISRDNAKNTVYLQMNSLKPEDTAVYYCAKGYRRVYGPFYYWGQVTQVTVSS | low polyreactivity
